The DeepSol protein solubility set

assay: soluble on expression in E. coli; label from the status in PepcDB or PDB records

Row | Sequence | soluble on expression in E. coli
1 | MTQLWVERTGTRRYIGRSTRGAQVLVGSEDVDGVFTPGELLKIALAACSGMASDQPLARRLGDDYQAVVKVSGAADRDQERYPLIEETMELDLSGLTEDEKERLLVVINRAVELACTVGRTLKSGTTVNLEVVDVGA | not soluble
2 | MHHHHHHGKPIPNPLLGLDSTENLYFQGIDPFTMNNRNHDVLSRMISEKAALHGLLNCLIKEFAIPEGYLRYEWPDEMKGIPPGAYFDGADWKGIPMMIGLPDQLQLFVMVDRRDTFGSQHYLSDVYLRQAQGDWQCPDFEPLVARLLAACEHIAGRKNPELYEQILQSQRLVSAIVSHNGRQRADAPLQHYLQSEQGLWFGHPSHPAPKARLWPAHLGQEQWAPEFQARAALHQFEVPVDGLHIGANGLTPQQVLDGFADQQPASPGHAIICMHPVQAQLFMQDARVQQLLRDNVIRDLGQSGRVASPTASIRTWFIDDHDYFIKGSLNVRITNCVRKNAWYELESTVLIDRLFRQLLDQHADTLGGLVAAAEPGVVSWSPAAAGELDSHWFREQTGGILRENFCRRTGAERSIMAGTLFARGVDLQPMIQTFLRTHYGEALDDNALLYWFDDYQTRLLRPVLSLFFNHGVVMEPHLQNSVLVHQQGRPQQVLLRDFEGVKLTDDLGIRYIDDDIHPRVRQSLLYSREQGWNRIMYCLFINHLSETILALSQGRPQLAPLMWRRVQQQLRAIQGELKQPSPELDALIAGHPVACKTNLKVRLAAEADRQASYVRLPSPWGHAVQHGSEVQHDERRHGDVRHEEARHGEVQHG | soluble
3 | TLDYNIQQQAYNLLGDNKGSVVVLNPKTGEILAMVSKPSYDPNDDALKASWAALNSNPDRPLLNRAVSGLYPPGSTFKTVTAISALENISGIQNETFNDPGQLVFNSTESLRDFGGESFGDIGFKHAYVVSSNVVFGKIGLQLGNNNLRQTAESFYFNKNIPCDGIVIDKSKFPTLKSYEKGNMAQSAIGQASVLATPIQMALVASTVANDGVMMKPHVVNEILSPNGDKIKSIEPESIGNIVSKENAATMKDFMRNVVEDGTGVNAAVEGIQVAGKTGTADHKVNGKDATPHSWFIGFAPYDNPQVAIAVIVEDGGQGGKAAAGIASKVIQTALQK | not soluble
4 | MSTSDTPRTYHHGNLPAVLRQAAWDIVGEAGVRSVSLRECARRANVSHAAPAHHFGSLENLLAEVVADGYERMVDAVQAAQRELDDPVLGCGMGYVNFARQYPQHFRLMFGMTGVNRALPRLVNSGEATLQLLRQSLRTAWIAKNGVEPEPALLEQRTLLAWSTAHGYASLAIDRTTVEPFVVSAESILQPMAVFLLTP | not soluble
5 | MSTKPAAAKTKPSCSEGGDLRVETENGETFITATQRADGTWRKARRVKGGYIPQDEQPKYQNKMQLEATNGRSSVPAGVNPRAMASGSSRKPVSAIKANVCITPQDHFQKKIDLTKKKIEDIEGMESRIASGELVPQPNQVKKIARKQEYLDEIEKLTLEMKKL | not soluble
6 | VWRTREAVVACIDADPHAEHVLRSAHRLAQQLDCEWHAITIEAPRVAPLPRAGRARLDQALALAETLGAHVETVAGTDMVDAATRYMRRHNITKAVVGRDAWRRRGLSGLL | not soluble
7 | GSADAEYDVVVLGGGPGGYSAAFAAADEGLKVAIVERYKTLGGVCLNVGCIPSKALLHNAAVIDEVRHLAANGIKYPEPELDIDMLRAYKDGVVSRLTGGLAGMAKSRKVDVIQGDGQFLDPHHLEVSLTAGDAYEQAAPTGEKKIVAFKNCIIAAGSRVTKLPFIPEDPRIIDSSGALALKEVPGKLLIIGGGIIGLEMGTVYSTLGSRLDVVEMMDGLMQGADRDLVKVWQKQNEYRFDNIMVNTKTVAVEPKEDGVYVTFEGANAPKEPQRYDAVLVAAGRAPNGKLISAEKAGVAVTDRGFIEVDKQMRTNVPHIYAIGDIVGQPMLAHKAVHEGHVAAENCAGHKAYFDARVIPGVAYTSPEVAWVGETELSAKASARKITKANFPWAASGRAIANGCDKPFTKLIFDAETGRIIGGGIVGPNGGDMIGEVCLAIEMGCDAADIGKTIHPHPTLGESIGMAAEVALGTCTDLPPQKK | soluble
